Test results taken from paper PMC2852889.

Target: human serum amyloid P (human), P02743
Assay: SPR
Conditions: remark: other sources report otherwise

human serum amyloid P (human), P02743, sequence (P02743 20-223): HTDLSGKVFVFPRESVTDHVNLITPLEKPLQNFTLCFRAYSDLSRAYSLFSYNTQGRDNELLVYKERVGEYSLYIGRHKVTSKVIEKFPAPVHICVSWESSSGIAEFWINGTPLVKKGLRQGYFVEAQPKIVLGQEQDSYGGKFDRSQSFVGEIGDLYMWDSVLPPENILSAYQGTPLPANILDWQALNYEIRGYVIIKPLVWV

B1: hFcγRIIIB, O75015 17-200 (receptor)
chain: GMRTEDLPKAVVFLEPQWYSVLEKDSVTLKCQGAYSPEDNSTQWFHNENLISSQASSYFIDAATVNDSGEYRCQTNLSTLSDPVQLEVHIGWLLLQAPRWVFKEEDPIHLRCHSWKNTALHKVTYLQNGKDRKYFHHNSDFHIPKATLKDSGSYFCRGLVGSKNVSSETVNITITQGLAVSTIS
**Q.** Which Kd does the source give for B1 here?
**A.** The Kd was 0.37 nM.
